The text below walks through data of patent publication US20230365641.

Several values for one entry are separate records, joined by “and”; a condition that tells them apart may be missing. Equal values may be shown once.

Chain of MMP-10 protease (chain, as listed by the source): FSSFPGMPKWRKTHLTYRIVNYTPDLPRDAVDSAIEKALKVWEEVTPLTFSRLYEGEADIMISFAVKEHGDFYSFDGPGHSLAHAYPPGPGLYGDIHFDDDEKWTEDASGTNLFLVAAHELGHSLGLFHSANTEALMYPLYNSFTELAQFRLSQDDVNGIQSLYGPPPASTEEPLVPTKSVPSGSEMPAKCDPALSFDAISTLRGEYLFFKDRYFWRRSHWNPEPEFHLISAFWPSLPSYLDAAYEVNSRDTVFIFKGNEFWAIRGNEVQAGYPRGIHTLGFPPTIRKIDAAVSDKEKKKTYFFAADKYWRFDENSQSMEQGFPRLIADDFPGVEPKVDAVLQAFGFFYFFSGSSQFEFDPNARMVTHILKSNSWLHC
Chain of recombinant human MMP-9 (chain, as listed by the source): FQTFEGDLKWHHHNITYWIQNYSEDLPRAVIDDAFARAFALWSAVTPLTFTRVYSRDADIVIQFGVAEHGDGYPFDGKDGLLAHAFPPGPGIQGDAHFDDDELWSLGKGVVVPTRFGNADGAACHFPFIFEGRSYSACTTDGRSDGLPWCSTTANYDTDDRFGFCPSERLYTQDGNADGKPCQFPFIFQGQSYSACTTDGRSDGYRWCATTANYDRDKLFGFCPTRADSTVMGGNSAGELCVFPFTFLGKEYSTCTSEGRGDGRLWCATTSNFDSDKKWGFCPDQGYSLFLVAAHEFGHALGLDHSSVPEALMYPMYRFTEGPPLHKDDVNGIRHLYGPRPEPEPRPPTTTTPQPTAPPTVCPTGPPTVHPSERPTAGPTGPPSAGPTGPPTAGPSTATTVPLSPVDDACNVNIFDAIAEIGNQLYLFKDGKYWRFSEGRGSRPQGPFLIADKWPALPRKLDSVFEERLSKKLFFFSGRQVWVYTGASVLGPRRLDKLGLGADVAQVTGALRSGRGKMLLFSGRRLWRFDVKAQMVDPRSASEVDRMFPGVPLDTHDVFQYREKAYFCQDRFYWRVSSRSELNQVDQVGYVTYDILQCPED
Chain of TC24 (chain, as listed by the source, chain 1 of 3, other chains not shown): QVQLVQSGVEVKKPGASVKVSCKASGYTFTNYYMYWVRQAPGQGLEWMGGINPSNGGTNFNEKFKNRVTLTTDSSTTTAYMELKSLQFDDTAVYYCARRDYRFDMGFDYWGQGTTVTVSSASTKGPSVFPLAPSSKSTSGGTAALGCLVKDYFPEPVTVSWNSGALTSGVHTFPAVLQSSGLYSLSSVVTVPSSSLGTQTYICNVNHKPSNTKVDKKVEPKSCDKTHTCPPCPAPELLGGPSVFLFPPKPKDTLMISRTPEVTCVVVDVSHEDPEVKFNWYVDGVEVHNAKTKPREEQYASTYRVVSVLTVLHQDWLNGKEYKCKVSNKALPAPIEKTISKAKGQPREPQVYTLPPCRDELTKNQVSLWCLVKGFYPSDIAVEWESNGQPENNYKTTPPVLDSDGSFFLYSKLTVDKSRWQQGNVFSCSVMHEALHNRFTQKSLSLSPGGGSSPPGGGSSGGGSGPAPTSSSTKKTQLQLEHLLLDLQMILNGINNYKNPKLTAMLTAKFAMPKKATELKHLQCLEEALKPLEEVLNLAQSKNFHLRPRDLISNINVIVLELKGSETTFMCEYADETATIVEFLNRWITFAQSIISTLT
Chain of TC24 (chain, as listed by the source, chain 2 of 3, other chains not shown): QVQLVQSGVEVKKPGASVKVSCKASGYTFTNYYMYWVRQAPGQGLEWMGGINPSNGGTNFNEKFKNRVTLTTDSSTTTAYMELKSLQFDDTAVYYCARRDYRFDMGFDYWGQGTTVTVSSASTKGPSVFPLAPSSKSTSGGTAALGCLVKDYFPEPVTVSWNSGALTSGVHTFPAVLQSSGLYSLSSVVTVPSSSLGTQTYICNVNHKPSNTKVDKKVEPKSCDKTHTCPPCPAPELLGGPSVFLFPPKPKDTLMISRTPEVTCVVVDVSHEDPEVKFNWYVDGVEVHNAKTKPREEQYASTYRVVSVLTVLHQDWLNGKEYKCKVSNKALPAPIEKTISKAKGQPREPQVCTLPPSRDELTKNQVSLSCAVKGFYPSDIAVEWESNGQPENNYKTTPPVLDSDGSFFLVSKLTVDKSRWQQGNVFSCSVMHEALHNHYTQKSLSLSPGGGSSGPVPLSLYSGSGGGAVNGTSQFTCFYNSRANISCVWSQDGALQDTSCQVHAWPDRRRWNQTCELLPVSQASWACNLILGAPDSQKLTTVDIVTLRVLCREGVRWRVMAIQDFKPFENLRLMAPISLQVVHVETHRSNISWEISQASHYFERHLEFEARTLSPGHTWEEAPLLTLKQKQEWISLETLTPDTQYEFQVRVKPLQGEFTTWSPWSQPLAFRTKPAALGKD
Chain of TC46 (chain, as listed by the source, chain 1 of 3, other chains not shown): as the sequence (chain, as listed by the source, chain 1 of 3, other chains not shown) above
Chain of TC46 (chain, as listed by the source, chain 2 of 3, other chains not shown): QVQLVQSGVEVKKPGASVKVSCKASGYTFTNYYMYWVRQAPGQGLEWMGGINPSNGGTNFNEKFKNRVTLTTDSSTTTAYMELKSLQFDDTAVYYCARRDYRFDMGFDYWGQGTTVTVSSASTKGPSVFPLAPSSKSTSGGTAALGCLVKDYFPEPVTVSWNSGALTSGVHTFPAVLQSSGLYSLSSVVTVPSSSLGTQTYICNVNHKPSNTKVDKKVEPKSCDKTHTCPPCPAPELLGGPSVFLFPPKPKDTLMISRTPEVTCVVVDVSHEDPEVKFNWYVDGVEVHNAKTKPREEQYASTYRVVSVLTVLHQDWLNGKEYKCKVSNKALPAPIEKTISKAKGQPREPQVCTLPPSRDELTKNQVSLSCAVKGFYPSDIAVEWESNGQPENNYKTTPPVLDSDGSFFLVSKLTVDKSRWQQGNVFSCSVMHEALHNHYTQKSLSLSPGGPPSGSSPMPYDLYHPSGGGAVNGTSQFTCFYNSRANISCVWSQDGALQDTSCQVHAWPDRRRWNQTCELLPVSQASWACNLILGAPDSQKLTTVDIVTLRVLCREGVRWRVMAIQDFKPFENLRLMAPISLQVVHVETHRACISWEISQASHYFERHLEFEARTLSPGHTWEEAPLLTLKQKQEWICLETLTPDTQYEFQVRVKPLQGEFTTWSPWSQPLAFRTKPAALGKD
Chain of TC3 (chain, as listed by the source, chain 1 of 3, other chains not shown): as the sequence (chain, as listed by the source, chain 1 of 3, other chains not shown) above
Chain of TC3 (chain, as listed by the source, chain 2 of 3, other chains not shown): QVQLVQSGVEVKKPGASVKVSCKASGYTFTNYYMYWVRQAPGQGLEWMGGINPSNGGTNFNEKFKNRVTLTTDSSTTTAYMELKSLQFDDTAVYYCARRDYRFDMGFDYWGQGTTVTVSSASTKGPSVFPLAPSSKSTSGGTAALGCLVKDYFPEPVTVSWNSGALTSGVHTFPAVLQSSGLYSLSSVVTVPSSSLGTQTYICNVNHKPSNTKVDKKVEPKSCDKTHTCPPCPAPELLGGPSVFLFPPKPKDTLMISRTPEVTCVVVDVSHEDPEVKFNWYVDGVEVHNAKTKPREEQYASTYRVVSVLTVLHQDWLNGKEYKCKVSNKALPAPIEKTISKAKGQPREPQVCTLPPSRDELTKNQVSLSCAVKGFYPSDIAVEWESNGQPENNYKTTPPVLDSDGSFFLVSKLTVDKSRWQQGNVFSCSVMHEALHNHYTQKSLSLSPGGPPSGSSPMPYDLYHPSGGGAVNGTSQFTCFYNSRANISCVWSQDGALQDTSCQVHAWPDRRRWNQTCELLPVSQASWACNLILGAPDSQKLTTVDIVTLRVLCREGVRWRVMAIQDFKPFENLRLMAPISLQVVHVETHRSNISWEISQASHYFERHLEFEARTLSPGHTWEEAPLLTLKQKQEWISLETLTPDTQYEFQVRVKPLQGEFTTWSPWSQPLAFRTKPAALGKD
Chain of TC47 (chain, as listed by the source, chain 1 of 3, other chains not shown): as the sequence (chain, as listed by the source, chain 1 of 3, other chains not shown) above
Chain of TC47 (chain, as listed by the source, chain 2 of 3, other chains not shown): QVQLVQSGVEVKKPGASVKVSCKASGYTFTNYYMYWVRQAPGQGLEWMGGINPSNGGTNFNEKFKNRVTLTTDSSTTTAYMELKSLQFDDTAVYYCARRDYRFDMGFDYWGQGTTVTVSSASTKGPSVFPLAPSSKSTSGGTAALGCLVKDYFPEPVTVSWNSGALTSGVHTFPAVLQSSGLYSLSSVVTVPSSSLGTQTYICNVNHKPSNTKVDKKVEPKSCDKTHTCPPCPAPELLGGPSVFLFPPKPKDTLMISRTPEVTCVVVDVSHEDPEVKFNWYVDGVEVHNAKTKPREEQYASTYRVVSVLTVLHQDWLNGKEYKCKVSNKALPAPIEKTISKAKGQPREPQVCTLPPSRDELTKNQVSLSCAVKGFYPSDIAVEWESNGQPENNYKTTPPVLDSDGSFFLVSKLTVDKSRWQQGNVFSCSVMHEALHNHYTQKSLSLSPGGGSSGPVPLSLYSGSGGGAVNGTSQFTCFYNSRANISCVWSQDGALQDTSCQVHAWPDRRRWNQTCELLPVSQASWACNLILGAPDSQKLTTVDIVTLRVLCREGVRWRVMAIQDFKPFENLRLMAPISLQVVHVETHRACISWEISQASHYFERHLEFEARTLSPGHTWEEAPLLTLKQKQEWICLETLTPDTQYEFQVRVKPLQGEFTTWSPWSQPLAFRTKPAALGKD

In the case of MMP-10 protease, the cleavage efficiency result in the data set with TC21, in the data set with TC24, in the data set with TC27 and in the data set on TC26 was “cleavage efficiency of greater than 80%” each time.

For recombinant human MMP-9, the Est. kcat/KM is 25000 M⁻¹ s⁻¹ and 26000 M⁻¹ s⁻¹ in the data set with TC75; 28000 M⁻¹ s⁻¹ and 30000 M⁻¹ s⁻¹ in the data set with TC71; 13000 M⁻¹ s⁻¹ and 14000 M⁻¹ s⁻¹ in the data set with TC57; 390 M⁻¹ s⁻¹ and 370 M⁻¹ s⁻¹ in the data set with TC70; 19000 M⁻¹ s⁻¹ and 18000 M⁻¹ s⁻¹ with TC53; 38000 M⁻¹ s⁻¹ in the data set with TC47. Also, the Est. kcat/KM in the data set on TC24 was 42000 M⁻¹ s⁻¹; in the data set on TC74, 850 M⁻¹ s⁻¹ and 860 M⁻¹ s⁻¹; in the data set with TC3, 3500 M⁻¹ s⁻¹; in the data set with TC73, 30000 M⁻¹ s⁻¹ and 29000 M⁻¹ s⁻¹; with TC68, 16000 M⁻¹ s⁻¹ and 15000 M⁻¹ s⁻¹; in the data set on TC46, 3500 M⁻¹ s⁻¹. In the data set with TC69, the Est. kcat/KM is 35000 M⁻¹ s⁻¹ and 36000 M⁻¹ s⁻¹.
